# In patent publication US10052365B2, “Methods and products relating to GSK3β regulation” (University of Vermont and State Agricultural College, priority 2008, dated 2018):
# Entries after “also recorded” stand apart in the source; their conditions may differ. Where no end group is shown, it is not given here. [ ]: non-standard residue; d: D form. pT = C[C@@H](OP(=O)(O)O)[C@H](N)C(=O)O; pS = N[C@@H](COP(=O)(O)O)C(=O)O
# B1: Akt: recombinant active Akt (Cell Signaling) (protein)
# chain: MNDVAIVKEGWLHKRGEYIKTWRPRYFLLKNDGTFIGYKERPQDVDQRESPLNNFSVAQCQLMKTERPRPNTFIIRCLQWTTVIERTFHVETPEEREEWATAIQTVADGLKRQEEETMDFRSGSPSDNSGAEEMEVSLAKPKHRVTMNEFEYLKLLGKGTFGKVILVKEKATGRYYAMKILKKEVIVAKDEVAHTLTENRVLQNSRHPFLTALKYSFQTHDRLCFVMEYANGGELFFHLSRERVFSEDRARFYGAEIVSALDYLHSEKNVVYRDLKLENLMLDKDGHIKITDFGLCKEGIKDGATMKTFCGTPEYLAPEVLEDNDYGRAVDWWGLGVVMYEMMCGRLPFYNQDHEKLFELILMEEIRFPRTLGPEAKSLLSGLLKKDPTQRLGGGSEDAKEIMQHRFFANIVWQDVYEKKLSPPFKPQVTSETDTRYFDEEFTAQMITITPPDQDDSMECVDSERRPHFPQFSYSASGTA
# Key:
# [1] = system: phospho-Ser^9 GSK3β in 293T cells; assay: Western blot of phospho-Ser^9 GSK3β in treated 293T cells; assay type: cell-based; details: 40 minutes, SB203580 5 μM, Wortmanin 1 μM, FIG. 7
# Procedure: (§1) Thymocytes were isolated from wildtype, Rag^−/− or MKK6(Glu) transgenic mice.
# (§2) Whole cell extracts were prepared in Triton lysis buffer (TLB) as previously described (25, 26). Nuclear extracts were made from cells as previously described (27). Immunoprecipitations and Western blotting was performed as described in (8). Anti-Akt, anti-p38 MAPK, anti-Lef, anti-c-Myc and anti-Histone (Santa Cruz Biotechnology, Santa Cruz, Calif.), anti-GSK3β, anti-β-catenin, anti-phospho-p38 MAPK and antiphospho-S^9 (Cell Signaling, Beverly, Mass.) and Anti-Flag (Stratagene, La Jolla, Calif.) were used for Western blot analysis. […] Anti-Akt, anti-p38 MAPK and Anti-GSK3β were used for immunoprecipitations. Anti-rabbit-HRP, anti-mouse-HRP (Jackson ImmunoResearch Laboratories, West Grove, Pa.) and anti-goat-HRP (Santa Cruz Biotechnology, Santa Cruz, Calif.) were used as secondary antibodies.
# p38 MAPK = details: SB203580 2.5 μM
# Procedure: The reactions were terminated after 30 min at 30° C. by addition of SDS-PAGE sample buffer, separated by SDS-PAGE and transferred to nitrocellulose. Protein was visualized by staining with PonceauS and incorporated ^32P was visualized by autoradiography. In specific experiments, whole cell extracts were first depleted of Akt prior to p38 MAPK immunoprecipitation by being pre-incubated with anti-Akt antibody prebound to protein A-Sepharose followed by one incubation with protein A-sepharose alone.
# phospho-Ser^389 GSK3β = assay: In vivo inhibition of p38 MAPK, phospho-Ser^389 GSK3β in thymocytes and brain; set-up: species or system mouse; details: wildtype mice i.p., 18 hours, FIG. 4L
# Procedure: as §1, §2
# β-catenin = assay: Western blot of β-catenin in 293T cells transfected with GSK3β, p38 and MKK6; assay type: cell-based; details: FIG. 4D
# Procedure: (§3) Thymocytes were isolated from wildtype, Rag^−/− or MKK6(Glu) transgenic mice. 293T cells were transiently transfected with the indicated expression constructs using calcium phosphate. When specified, 293T cells were treated with SB203580 (5 μM) and Wortmanin (1 μM) (Calbiochem, San Diego, Calif.). Wildtype, GSK3α^−/− and GSK3β^−/− ES cells (17), as well as WT and MKK3^−/−MKK6^−/− MEF (22) have been previously described, and were also treated with SB203580 as described above for the indicated periods of time. For in vivo inhibition of p38 MAPK, wildtype mice were intraperitoneally (i.p.) injected with SB203580 or vehicle alone, and after 18 hours brain and thymocytes were harvested to prepare whole cell lysates.
# (§4) Whole cell extracts were prepared in Triton lysis buffer (TLB) as previously described (25, 26). Nuclear extracts were made from cells as previously described (27). Immunoprecipitations and Western blotting was performed as described in (8). Anti-Akt, anti-p38 MAPK, anti-Lef, anti-c-Myc and anti-Histone (Santa Cruz Biotechnology, Santa Cruz, Calif.), anti-GSK3β, anti-β-catenin, anti-phospho-p38 MAPK and antiphospho-S^9 (Cell Signaling, Beverly, Mass.) and Anti-Flag (Stratagene, La Jolla, Calif.) were used for Western blot analysis. The phospho-S^389 GSK3β antibody was made by Proteintech, Chicago, Ill., using N-C-ARIQAAA(phos-S)PPANATA (SEQ ID NO:87) for immunization. […]
# [2] = system: phosphorylation of GSK3β at Ser^389; assay: Western blot of phospho-Ser^389 in mouse GSK3β-transfected 293T cells; assay type: cell-based; details: FIG. 4D
# Procedure: as §3, §4
# [3] = system: phosphorylation of endogenous GSK3β at Ser^389; assay: Western blot of phospho-Ser^389 of endogenous GSK3β in MEFs and ES cells; assay type: cell-based, mouse; details: FIG. 4E-F
# Procedure: as §3, §4
# GST-GSK3β [4] = molecular target: T1, GST-GSK3β (Homo sapiens, UniProt P49841); details: references 20, 21; cited from earlier work
# T1 construct: made in house
# GSM substrate peptide = assay: Specific activity of active GST-GSK3β wildtype and mutants; assay type: biochemical
# Procedure: (§5) Active GST-GSK3β and GST-GSK3β-T^43A and GST-GSK3β-T^390 mutants were expressed and purified as described in (29). The specific activity of the wildtype and the mutants was determined using the GSM substrate peptide (Upstate, Lake Placid, N.Y.) and were as follows: GST-GSK3β (91 μmol/μg×min) and GST-GSK3β-T^43A (53 μmol/μg×min) and GST-GSK3β-T^390A (65 μmol/μg×min). In vitro GSK3β kinase assays were performed by incubating purified active wildtype GST-GSK3β or GST-GSK3β-T^43A and GST-GSK3β-T^390A mutants (400 ng) at 30° C. for 10 minutes in kinase buffer supplemented with 1 mM ATP containing [γ-^32P] ATP and GSM substrate peptide (62.5 μM) (Upstate, Lake Placid, N.Y.). Reactions were terminated by spotting onto P81 filters. Filters were washed extensively and counted in a scintillation counter. To examine the effect of p38 MAPK and Akt on GSK3β activity, purified active GSK3β or mutants were preincubated for 15 minutes at 30° C. with 500 ng recombinant active p38 MAPK or active Akt (Cell Signaling, Beverly, Mass.) prior to performing the GSK3β activity assay as described above.
# GST-GSK3β [5] = molecular target: T1, GST-GSK3β; assay: In vitro GSK3β kinase assay with inhibitory peptides (GSM substrate); assay type: biochemical; details: for GSK3β activity in the presence of peptide: in vitro kinase reaction, FIG. 3G
# Procedure: as §5
# For peptide inhibition assays, Phospho-S^9 (GRPRTTS(PO3H2)FAE) (SEQ ID NO:95) (20). Phospho-[…] (RIQAAAST(PO3H2)PTN) (SEQ ID NO:7) and non-phospho-T^390 (RIQAAASTPTN) (SEQ ID NO:96) peptides were synthesized and purified by UVM protein Core Facility. In vitro kinase assays were performed with purified GST-GSK3β (400 ng) in Kinase buffer supplement with 1 mM ATP containing [γ-^32P] ATP and the indicated concentrations of GSM and inhibitory peptide.
# GSK3β-T^43A mutant = molecular target: T2, GSK3β-T^43A mutant (Homo sapiens, UniProt P49841, T43A); assay: GSK3β activity after preincubation with active p38 MAPK or Akt; assay type: biochemical; details: preincubated 15 minutes at 30° C. with 500 ng kinase; FIG. 3E
# T2 construct: made in house
# Procedure: as §5
# GSK3β-T^390A mutant = molecular target: T3, GSK3β-T^390A mutant (Homo sapiens, UniProt P49841, T390A); assay: as above; assay type: biochemical; details: preincubated 15 minutes at 30° C. with 500 ng kinase; FIG. 3F
# T3 construct: made in house
# Procedure: as §5
# wild-type GSK3β = molecular target: T4, wild-type GSK3β (Homo sapiens, UniProt P49841); assay: as above; assay type: biochemical; details: preincubated 15 minutes at 30° C. with 500 ng kinase; FIG. 3D
# T4 construct: made in house
# Procedure: as §5
# GSK3α = GSK3α (Homo sapiens, UniProt P49840); assay: In vitro GSK3α kinase assay after preincubation with activated p38 MAPK; assay type: biochemical; details: pre-incubated 15 min; FIG. 12
# Procedure: Recombinant kinase-active GSK3α was pre-incubated in the reaction buffer alone (GSKα), with activated p38 MAPK or activated Akt (15 min). In vitro GSK3α kinase assays were then performed using GSM as the substrate. Error bars represent SD (n=3).
# T1 sequence (P49841 whole entry): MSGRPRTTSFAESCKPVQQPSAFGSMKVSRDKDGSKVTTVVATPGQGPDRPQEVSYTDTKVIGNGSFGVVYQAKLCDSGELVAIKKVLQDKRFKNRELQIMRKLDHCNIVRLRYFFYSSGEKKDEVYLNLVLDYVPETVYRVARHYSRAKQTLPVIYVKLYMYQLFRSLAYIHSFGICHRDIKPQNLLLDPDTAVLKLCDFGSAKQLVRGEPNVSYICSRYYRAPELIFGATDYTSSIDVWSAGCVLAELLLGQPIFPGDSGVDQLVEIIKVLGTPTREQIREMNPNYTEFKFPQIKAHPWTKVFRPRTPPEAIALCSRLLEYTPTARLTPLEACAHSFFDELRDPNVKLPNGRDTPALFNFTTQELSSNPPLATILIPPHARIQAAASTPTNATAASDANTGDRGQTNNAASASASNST
# T2 sequence (P49841 whole entry T43A): as the sequence (P49841 whole entry) above, with T43A counted along it
# T4 sequence (P49841 whole entry): as the sequence (P49841 whole entry) above
# T3 sequence (P49841 whole entry T390A): as the sequence (P49841 whole entry) above, with T390A counted along it
# Chain of GSK3α (P49840 whole entry, species assumed): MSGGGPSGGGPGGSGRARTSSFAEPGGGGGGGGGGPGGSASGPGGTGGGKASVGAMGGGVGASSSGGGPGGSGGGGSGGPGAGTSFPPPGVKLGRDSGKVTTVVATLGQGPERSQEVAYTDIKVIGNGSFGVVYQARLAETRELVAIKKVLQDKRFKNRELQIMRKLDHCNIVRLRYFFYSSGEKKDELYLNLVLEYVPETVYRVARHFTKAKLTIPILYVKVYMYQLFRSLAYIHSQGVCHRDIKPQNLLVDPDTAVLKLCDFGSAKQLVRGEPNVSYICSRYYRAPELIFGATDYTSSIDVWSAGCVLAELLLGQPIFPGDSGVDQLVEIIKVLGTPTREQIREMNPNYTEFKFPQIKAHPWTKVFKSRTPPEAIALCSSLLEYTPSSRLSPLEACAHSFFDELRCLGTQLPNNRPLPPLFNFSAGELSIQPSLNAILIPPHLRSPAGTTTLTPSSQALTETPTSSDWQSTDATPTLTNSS
molecule,measurement,setting,value
C[S+]([O-])c1ccc(-c2nc(-c3ccncc3)c(-c3ccc(F)cc3)[nH]2)cc1 (stereo not drawn) [SB203580],phosphorylation of Ser^9 of GSK3β,[1],not affected
same,phosphorylation of GSK3β by purified recombinant activated p38 MAPK,p38 MAPK; FIG. 2E,blocked
same,phosphorylation of recombinant catalytically-inactive GSK3β by immunoprecipitated p38 MAPK,"p38 MAPK; p38 MAPK from MKK6 thymocytes or MKK6-transfected 293T cells, FIG. 2C",blocked
same,levels of phospho-Ser^389 GSK3β,phospho-Ser^389 GSK3β; brain,reduced
same,levels of phospho-Ser^389 GSK3β,phospho-Ser^389 GSK3β; thymocytes,reduced
same,amount of β-catenin,β-catenin,decreased
same,phosphorylation of Ser^389,[2],abrogated
same,phosphorylation of endogenous GSK3β at Ser^389,[3]; embryonic stem (ES) cells,inhibited
same,phosphorylation of endogenous GSK3β at Ser^389,[3]; wild-type mouse embryonic fibroblasts (MEFs),inhibited
COC[C@H]1OC(=O)c2coc3c2[C@@]1(C)C1=C(C3=O)[C@@H]2CCC(=O)[C@@]2(C)C[C@H]1OC(C)=O [Wortmanin],phosphorylation of Ser^9 of GSK3β,[1],impaired
GRPRTTS(PO3H2)FAE (GRPRTT[pS]FAE) [phospho-Ser^9 peptide],inhibition of GSK3β in vitro,GST-GSK3β [4],specifically inhibits GSK3β in vitro
GST-GSK3β-T^43A: purified active GST-GSK3β T^43A mutant,specific activity,GSM substrate peptide,53 µmol/µg/min
GST-GSK3β-T^390A: purified active GST-GSK3β T^390A mutant,specific activity,GSM substrate peptide,65 µmol/µg/min
GST-GSK3β: purified active wildtype GST-GSK3β fusion protein,specific activity,GSM substrate peptide,91 µmol/µg/min
RIQAAAST(PO3H2)PTN (RIQAAAS[pT]PTN) [phospho-Thr^390 peptide],GSK3β activity in the presence of peptide,GST-GSK3β [5],inhibited GSK3β activity
same,inhibition of GSK3β activity compared with phospho-Ser^9 peptide,"GST-GSK3β [5]; various concentrations of peptides, FIG. 3H-J",as efficiently as the phospho-Ser^9 peptide
"RIQAAASTPTN [unphosphorylated-Thr^390 peptide, reference compound]",GSK3β activity in the presence of peptide,GST-GSK3β [5],did not
p38 MAPK: recombinant active p38 MAPK (Cell Signaling),effect on GSK3β activity,GSK3β-T^43A mutant,inhibited
same,effect on GSK3β activity,GSK3β-T^390A mutant,not
same,effect on GSK3β activity,wild-type GSK3β,inhibited
same,effect on GSK3α activity,GSK3α,did not affect; also recorded: does not inhibit
B1,effect on GSK3β activity,GSK3β-T^43A mutant,inhibited
same,effect on GSK3β activity,GSK3β-T^390A mutant,inhibited
same,effect on GSK3β activity,wild-type GSK3β,inhibited
